Measurements published in the supplement of paper PMC11780869.

Test system: Bacillus subtilis
Assay: cleaved RNA product abundance (RNA/gDNA barcode ratio) relative to median wild-type variant (ratio to wild type); higher = more accumulation of the downstream cleavage product
Details: cleavage site: cggR-gapA (positions -7 to +36 mutated)
Outline: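 B. subtilis strains with chromosomally integrated reporter mRNAs (truncated aprE or tetM) holding barcoded, mutagenized RNase Y cleavage-site windows grew in LB at 37°C from OD600 0.0003 to 0.3. Cleaved product abundance is each construct's RNA:gDNA barcode ratio, scaled to the median construct with the unmutated site. It came from sequencing barcodes of gel-selected, reverse-transcribed cleaved RNA and of genomic DNA.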

[1] = experiment (reporter, strain, medium): exp 4a: truncated aprE reporter, strain BJT201 with 2% xylose (RNase J1 expressed)
[2] = experiment (reporter, strain, medium): exp 2b: truncated aprE reporter, strain BJT200
[3] = experiment (reporter, strain, medium): exp 6: tetM reporter, strain 168

| Sequence | cleaved RNA product abundance [1] | cleaved RNA product abundance [2] | cleaved RNA product abundance [3] |
| --- | --- | --- | --- |
| ACAGACGAAGGAGCCGCAAAGAAGTTATTAAAGGATGAGTAATCCCTCAATATAAATATCTCTCACTTATTTAAA | 0.202 | – | – |
| ACAGACGAAGGAGCCGCAAAGAAGTTATTAAAGGATGATTAATCCCTCAATATAAATATCTCTCACTTATTTAAA | 0.184 | 0.122 | – |
| ACAGACGAAGGAGCCGCAAAGAAGTTATTAAAGGATGCATAATCCCTCAATATAAATATCTCTCACTTATTTAAA | 0.312 | – | – |
| ACAGACGAAGGAGCCGCAAAGAAGTTATTAAAGGATGGATAATCCCTCAATATAAATATCTCTCACTTATTTAAA | 0.141 | – | – |
| ACAGACGAAGGAGCCGCAAAGAAGTTATTAAAGGATGTATAATCCCTCAATATAAATATCTCTCACTTATTTAAA | 0.177 | – | – |
| ACAGACGAAGGAGCCGCAAAGAAGTTATTAAAGGATTAATAATCCCTCAATATAAATATCTCTCACTTATTTAAA | 0.205 | 0.154 | – |
| ACAGACGAAGGAGCCGCAAAGAAGTTATTAAAGGCTGAATAATCCCTCAATATAAATATCTCTCACTTATTTAAA | 0.0571 | 0.0927 | – |
| ACAGACGAAGGAGCCGCAAAGAAGTTATTAAAGGGATGAATAATCCCTCAATATAAATATCTCTCACTTATTTAA | 0.35 | 0.283 | – |
| ACAGACGAAGGAGCCGCAAAGAAGTTATTAAAGGGTGAATAATCCCTCAATATAAATATCTCTCACTTATTTAAA | 0.202 | – | – |
| ACAGACGAAGGAGCCGCAAAGAAGTTATTAAAGGTTGAATAATCCCTCAATATAAATATCTCTCACTTATTTAAA | 0.0853 | – | – |
| ACAGACGAAGGAGCCGCAAAGAAGTTATTAAAGTATGAATAAACCCTCAATATAAATATCTCTCACTTATTTAAA | – | 0.102 | – |
| ACAGACGAAGGAGCCGCAAAGAAGTTATTAAAGTATGAATAATCCCTCAATATAAATATCTCTCACTTATTTAAA | 0.124 | 0.0922 | – |
| ACAGACGAAGGAGCCGCAAAGAAGTTATTAAATGATGAATAATCCATCAATATAAATATCTCTCACTTATTTAAA | 0.162 | – | – |
| ACAGACGAAGGAGCCGCAAAGAAGTTATTAAATGATGAATAATCCCTCAATATAAATATCTCTCACTTATTTAAA | 0.1 | 0.0939 | – |
| ACAGACGAAGGAGCCGCAAAGAAGTTATTAAATGATGAATAATCCCTCAATATATATATCTCTCACTTATTTAAA | 0.13 | – | – |
| ACAGACGAAGGAGCCGCAAAGAAGTTATTAACAGATGAATAATCCCTCAATATAAATATCTCTCACTTATTTAAA | 0.0984 | 0.0822 | – |
| ACAGACGAAGGAGCCGCAAAGAAGTTATTAACCGATGAATAATCCCTCAATATAAATATCTCTCACTTATTTAAA | 0.0751 | 0.0926 | – |
| ACAGACGAAGGAGCCGCAAAGAAGTTATTAACGAATGAATAATCCCTCAATATAAATATCTCTCACTTATTTAAA | 0.0881 | 0.0836 | – |
| ACAGACGAAGGAGCCGCAAAGAAGTTATTAACGAATTAATAATCCCTCAATATAAATATCTCTCACTTATTTAAA | 0.0842 | – | – |
| ACAGACGAAGGAGCCGCAAAGAAGTTATTAACGCATGAATAATCCCTCAATATAAATATCTCTCACTTATTTAAA | 0.0743 | – | – |
| ACAGACGAAGGAGCCGCAAAGAAGTTATTAACGGAAGAATAATCCCTCAATATAAATATCTCTCACTTATTTAAA | 0.152 | – | – |
| ACAGACGAAGGAGCCGCAAAGAAGTTATTAACGGACGAATAATCCCTCAATATAAATATCTCTCACTTATTTAAA | 0.0823 | 0.0519 | – |
| ACAGACGAAGGAGCCGCAAAGAAGTTATTAACGGAGGAATAATCCCTCAATATAAATATCTCTCACTTATTTAAA | 0.171 | – | – |

| Sequence | cleaved RNA product abundance [1] | cleaved RNA product abundance [2] | cleaved RNA product abundance [3] |
| --- | --- | --- | --- |
| ACAGACGAAGGAGCCGCAAAGAAGTTATTAACGGATAAATAATCCCTCAATATAAATATCTCTCACTTATTTAAA | 0.188 | 0.103 | – |
| ACAGACGAAGGAGCCGCAAAGAAGTTATTAACGGATCAATAATCCCTCAATATAAATATCTCTCACTTATTTAAA | 0.104 | 0.0668 | – |
| ACAGACGAAGGAGCCGCAAAGAAGTTATTAACGGATGAAAAATCCCTCAATATAAATATCTCTCACTTATTTAAA | 0.133 | 0.104 | – |
| ACAGACGAAGGAGCCGCAAAGAAGTTATTAACGGATGAACAATCCCTCAATATAAATATCTCTCACTTATTTAAA | – | 0.0917 | – |
| ACAGACGAAGGAGCCGCAAAGAAGTTATTAACGGATGAAGAATCCCTCAATATAAATATCTCTCACTTATTTAAA | 0.17 | – | – |
| ACAGACGAAGGAGCCGCAAAGAAGTTATTAACGGATGAATAAACCCTCAATATAAATATCTCTCACTTATTTAAA | 0.12 | 0.0962 | – |
| ACAGACGAAGGAGCCGCAAAGAAGTTATTAACGGATGAATAACCCCTCAATATAAATATCTCTCACTTATTTAAA | 0.0802 | – | – |
| ACAGACGAAGGAGCCGCAAAGAAGTTATTAACGGATGAATAATACCTCAATATAAATATCTCTCACTTATTTAAA | 0.136 | 0.0908 | – |
| ACAGACGAAGGAGCCGCAAAGAAGTTATTAACGGATGAATAATCACTCAATATAAATATCTCTCACTTATTTAAA | 0.106 | 0.0895 | – |
| ACAGACGAAGGAGCCGCAAAGAAGTTATTAACGGATGAATAATCCATCAATATAAATATCTCTCACTTATTTAAA | 0.233 | 0.138 | – |
| ACAGACGAAGGAGCCGCAAAGAAGTTATTAACGGATGAATAATCCCACAATATAAATATCTCTCACTTATTTAAA | 0.133 | – | – |
| ACAGACGAAGGAGCCGCAAAGAAGTTATTAACGGATGAATAATCCCCCAATATAAATATCTCTCACTTATTTAAA | 0.173 | – | – |
| ACAGACGAAGGAGCCGCAAAGAAGTTATTAACGGATGAATAATCCCGCAATATAAATATCTCTCACTTATTTAAA | 0.392 | – | – |
| ACAGACGAAGGAGCCGCAAAGAAGTTATTAACGGATGAATAATCCCTAAATATAAATATCTCTCACTTATTTAAA | 0.225 | – | 0.194 |
| ACAGACGAAGGAGCCGCAAAGAAGTTATTAACGGATGAATAATCCCTCAAAATAAATATCTCTCACTTATTTAAA | 0.158 | 0.105 | – |
| ACAGACGAAGGAGCCGCAAAGAAGTTATTAACGGATGAATAATCCCTCAACATAAATATCTCTCACTTATTTAAA | 0.172 | – | – |
| ACAGACGAAGGAGCCGCAAAGAAGTTATTAACGGATGAATAATCCCTCAATAAAAATATCTCTCACTTATTTAAA | 0.08 | – | – |
| ACAGACGAAGGAGCCGCAAAGAAGTTATTAACGGATGAATAATCCCTCAATACAAATATCTCTCACTTATTTAAA | 0.0789 | – | – |
| ACAGACGAAGGAGCCGCAAAGAAGTTATTAACGGATGAATAATCCCTCAATATAAAAATCTCTCACTTATTTAAA | 0.116 | 0.156 | – |
| ACAGACGAAGGAGCCGCAAAGAAGTTATTAACGGATGAATAATCCCTCAATATAAATATCTCTCACTTATTAAAG | 0.172 | – | – |
| ACAGACGAAGGAGCCGCAAAGAAGTTATTAACGGATGAATAATCCCTCAATATAAATATCTCTCACTTATTTAAA | 0.177 | 0.133 | 0.195 |
| ACAGACGAAGGAGCCGCAAAGAAGTTATTAACGGATGAATAATCCCTCAATATAAATCTCTCTCACTTATTTAAA | – | 0.108 | – |
